First the molecules themselves.
B2: HA-SNAP-GluK3 (receptor, rat, UniProt P42264 32-919, looked up)
chain: MPHVIRIGGIFEYADGPNAQVMNAEEHAFRFSANIINRNRTLLPNTTLTYDIQRIHFHDSFEATKKACDQLALGVVAIFGPSQGSCTNAVQSICNALEVPHIQLRWKHHPLDNKDTFYVNLYPDYASLSHAILDLVQSLKWRSATVVYDDSTGLIRLQELIMAPSRYNIRLKIRQLPIDSDDSRPLLKEMKRGREFRIIFDCSHTMAAQILKQAMAMGMMTEYYHFIFTTLDLYALDLEPYRYSGVNLTGFRILNVDNAHVSAIVEKWSMERLQAAPRAESGLLDGVMMTDAALLYDAVHIVSVCYQRASQMTVNSLQCHRHKPWRFGGRFMNFIKEAQWEGLTGRIVFNKTSGLRTDFDLDIISLKEDGLEKVGVWSPADGLNITEVAKGRGPNVTDSLTNRSLIVTTLLEEPFVMFRKSDRTLYGNDRFEGYCIDLLKELAHILGFSYEIRLVEDGKYGAQDDKGQWNGMVKELIDHKADLAVAPLTITHVREKAIDFSKPFMTLGVSILYRKPNGTNPSVFSFLNPLSPDIWMYVLLAYLGVSCVLFVIARFSPYEWYDAHPCNPGSEVVENNFTLLNSFWFGMGSLMQQGSELMPKALSTRIIGGIWWFFTLIIISSYTANLAAFLTVERMESPIDSADDLAKQTKIEYGAVKDGATMTFFKKSKISTFEKMWAFMSSKPSALVKNNEEGIQRTLTADYALLMESTTIEYITQRNCNLTQIGGLIDSKGYGIGTPMGSPYRDKITIAILQLQEEDKLHIMKEKWWRGSGCPEEENKEASALGIQKIGGIFIVLAAGLVLSVLVAVGEFIYKLRKTAEREQRSFCSTVADEIRFSLTCQRRLKHKPQPPMMVKTDAVINMHTFNDRRLPGKDSMSCSTSLAPVFP
modifications: SNAP tag labelled with SBG-OG (Oregon Green)

The data set “HA-SNAP-GluK3” deals with B2. The data set can be described thus: single-molecule pull-down.
Data set [1] deals with the molecule itself. The data set can be described thus: single-molecule pull-down.

B1: Halo-GluK5 (receptor, rat, UniProt Q63273 15-979, looked up)
chain: NPSCQVLSSLRMAAILDDQTVCGRGERLALALAREQINGIIEVPAKARVEVDIFELQRDSQYETTDTMCQILPKGVVSVLGPSSSPASASTVSHICGEKEIPHIKVGPEETPRLQYLRFASVSLYPSNEDVSLAVSRILKSFNYPSASLICAKAECLLRLEELVRGFLISKETLSVRMLDDSRDPTPLLKEIRDDKVSTIIIDANASISHLVLRKASELGMTSAFYKYILTTMDFPILHLDGIVEDSSNILGFSMFNTSHPFYPEFVRSLNMSWRENCEASTYPGPALSAALMFDAVHVVVSAVRELNRSQEIGVKPLACTSANIWPHGTSLMNYLRMVEYDGLTGRVEFNSKGQRTNYTLRILEKSRQGHREIGVWYSNRTLAMNATTLDINLSQTLANKTLVVTTILENPYVMRRPNFQALSGNERFEGFCVDMLRELAELLRFRYRLRLVEDGLYGAPEPNGSWTGMVGELINRKADLAVAAFTITAEREKVIDFSKPFMTLGISILYRVHMGRKPGYFSFLDPFSPAVWLFMLLAYLAVSCVLFLAARLSPYEWYNPHPCLRARPHILENQYTLGNSLWFPVGGFMQQGSEIMPRALSTRCVSGVWWAFTLIIISSYTANLAAFLTVQRMEVPVESADDLADQTNIEYGTIHAGSTMTFFQNSRYQTYQRMWNYMQSKQPSVFVKSTEEGIARVLNSRYAFLLESTMNEYHRRLNCNLTQIGGLLDTKGYGIGMPLGSPFRDEITLAILQLQENNRLEILKRKWWEGGRCPKEEDHRAKGLGMENIGGIFVVLICGLIIAVFVAVMEFIWSTRRSAESEEVSVCQEMLQELRHAVSCRKTSRSRRRRRPGGPSRALLSLRAVREMRLSNGKLYSAGAGGDAGAHGGPQRLLDDPGPPGGPRPQAPTPCTHVRVCQECRRIQALRASGAGAPPRGLGTPAEATSPPRPRPGPTGPRELTEHE
modifications: Halo tag labelled with CA-Sulfo549 (two-colour) or CA-Sulfo646 (three-colour)
For B1, the “stoichiometry N” value in the data set with HA-SNAP-GluK3 was ≤ 2 GluK5 subunits in a di-heteromer.
As to B2, the “stoichiometry N” value in data set [1] stood at 4.

B3: HA-SNAP-GluK2 (receptor, rat, UniProt P42260 32-908, looked up)
chain: TTHVLRFGGIFEYVESGPMGAEELAFRFAVNTINRNRTLLPNTTLTYDTQKINLYDSFEASKKACDQLSLGVAAIFGPSHSSSANAVQSICNALGVPHIQTRWKHQVSDNKDSFYVSLYPDFSSLSRAILDLVQFFKWKTVTVVYDDSTGLIRLQELIKAPSRYNLRLKIRQLPADTKDAKPLLKEMKRGKEFHVIFDCSHEMAAGILKQALAMGMMTEYYHYIFTTLDLFALDVEPYRYSGVNMTGFRILNTENTQVSSIIEKWSMERLQAPPKPDSGLLDGFMTTDAALMYDAVHVVSVAVQQFPQMTVSSLQCNRHKPWRFGTRFMSLIKEAHWEGLTGRITFNKTNGLRTDFDLDVISLKEEGLEKIGTWDPASGLNMTESQKGKPANITDSLSNRSLIVTTILEEPYVLFKKSDKPLYGNDRFEGYCIDLLRELSTILGFTYEIRLVEDGKYGAQDDVNGQWNGMVRELIDHKADLAVAPLAITYVREKVIDFSKPFMTLGISILYRKPNGTNPGVFSFLNPLSPDIWMYILLAYLGVSCVLFVIARFSPYEWYNPHPCNPDSDVVENNFTLLNSFWFGVGALMQQGSELMPKALSTRIVGGIWWFFTLIIISSYTANLAAFLTVERMESPIDSADDLAKQTKIEYGAVEDGATMTFFKKSKISTYDKMWAFMSSRRQSVLVKSNEEGIQRVLTSDYAFLMESTTIEFVTQRNCNLTQIGGLIDSKGYGVGTPMGSPYRDKITIAILQLQEEGKLHMMKEKWWRGNGCPEEESKEASALGVQNIGGIFIVLAAGLVLSVFVAVGEFLYKSKKNAQLEKRSFCSAMVEELRMSLKCQRRLKHKPQAPVIVKTEEVINMHTFNDRRLPGKETMA
modifications: SNAP tag labelled with SBG-OG (Oregon Green); for smFRET with BG-LD555 and BG-LD655
B3: in data set [1], the “stoichiometry N” value is 4.

B4: HA-SNAP-GluK1 (receptor, rat, UniProt P22756 31-949, looked up)
chain: QTSPQVLRIGGIFETVENEPVNVEELAFKFAVTSINRNRTLMPNTTLTYDIQRINLFDSFEASRRACDQLALGVAALFGPSHSSSVSAVQSICNALEVPHIQTRWKHPSVDSRDLFYINLYPDYAAISRAVLDLVLYYNWKTVTVVYEDSTGLIRLQELIKAPSRYNIKIKIRQLPPANKDAKPLLKEMKKSKEFYVIFDCSHETAAEILKQILFMGMMTEYYHYFFTTLDLFALDLELYRYSGVNMTGFRKLNIDNPHVSSIIEKWSMERLQAPPRPETGLLDGMMTTEAALMYDAVYMVAIASHRASQLTVSSLQCHRHKPCALGPRFMNLIKEARWDGLTGRITFNKTDGLRKDFDLDIISLKEEGTEKASGEVSKHLYKVWKKIGIWNSNSGLNMTDGNRDRSNNITDSLANRTLIVTTILEEPYVMYRKSDKPLYGNDRFEAYCLDLLKELSNILGFLYDVKLVPDGKYGAQNDKGEWNGMVKELIDHRADLAVAPLTITYVREKVIDFSKPFMTLGISILYRKPNGTNPGVFSFLNPLSPDIWMYVLLACLGVSCVLFVIARFTPYEWYNPHPCNPDSDVVENNFTLLNSFWFGVGALMQQGSELMPKALSTRIVGGIWWFFTLIIISSYTANLAAFLTVERMESPIDSADDLAKQTKIEYGAVRDGSTMTFFKKSKISTYEKMWAFMSSRQQSALVKNSDEGIQRVLTTDYALLMESTSIEYVTQRNCNLTQIGGLIDSKGYGVGTPIGSPYRDKITIAILQLQEEGKLHMMKEKWWRGNGCPEEDSKEASALGVENIGGIFIVLAAGLVLSVFVAIGEFLYKSRKNNDVEQKGKSSRLRFYFRNKVRFHGSKKESLGVEKCLSFNAIMEELGISLKNQKKLKKKSRTKGKSSFTSILTCHQRRTQRKETVA
modifications: SNAP tag labelled with SBG-OG (Oregon Green); for smFRET with BG-LD555 and/or BG-LD655
With B4, the “stoichiometry N” value in data set [1] came to 4.

As a reminder, the stoichiometry N is the number of molecules, sites or subunits per partner or assembly.

For the origin of these results see publication PMC8581553 (Cell reports, 2021).
